From article PMC7320910 (Nature microbiology, 2020)
Values joined by “and” are separate entries in the source; they are usually repeats but may differ in a detail not shown here. Identical values can stand only once.

Biological target: the molecule itself
Assay: cryo-EM structure

B1: FliF (flagellar MS-ring protein) from Salmonella enterica serovar Typhimurium (natural protein)
chain: MSATASTATQPKPLEWLNRLRANPRIPLIVAGSAAVAIVVAMVLWAKTPDYRTLFSNLSDQDGGAIVAQLTQMNIPYRFANGSGAIEVPADKVHELRLRLAQQGLPKGGAVGFELLDQEKFGISQFSEQVNYQRALEGELARTIETLGPVKSARVHLAMPKPSLFVREQKSPSASVTVTLEPGRALDEGQISAVVHLVSSAVAGLPPGNVTLVDQSGHLLTQSNTSGRDLNDAQLKFANDVESRIQRRIEAILSPIVGNGNVHAQVTAQLDFANKEQTEEHYSPNGDASKATLRSRQLNISEQVGAGYPGGVPGALSNQPAPPNEAPIATPPTNQQNAQNTPQTSTSTNSNSAGPRSTQRNETSNYEVDRTIRHTKMNVGDIERLSVAVVVNYKTLADGKPLPLTADQMKQIEDLTREAMGFSDKRGDTLNVVNSPFSAVDNTGGELPFWQQQSFIDQLLAAGRWLLVLVVAWILWRKAVRPQLTRRVEEAKAAQEQAQVRQETEEAVEVRLSKDEQLQQRRANQRLGAEVMSQRIREMSDNDPRVVALVIRQWMSNDHE
B1 was tested, and the “stoichiometry N” value was 33 and 34 and 32 and 35.
